Results as given in patent publication EP0733063B1.
“And” between values parts separate entries of the source, which are not always exact repeats. Identical values can stand only once.

What was measured:
[1] = molecular target: purified monoclonal anti-hCG antibody (anti-hCG-A antibody, gift from Organon Technika); experiment: ratio of affinity constants of hCG and of the oligopeptide for the antibody
[2] = molecular target: purified monoclonal anti-hCG antibody (anti-hCG-A antibody, gift from Organon Technika); experiment: fluorescence anisotropy displacement, non-linear curve fitting by Equation (6), 6 C

- fold higher binding affinity than the oligopeptide [1]: 300 fold and 500 fold
- Ka [2]: 9.4e+09 M⁻¹
Substance: human chorionic gonadotrophin (hCG), highly purified, intact (from UniProt P01215 25-116; P0DN86 21-165) (ligand)
